From patent US6555340

Experiments:
[1] = biological target: cellular RAGE on human cells (HUVEC, Molt-4 cells, PBMC, Jurkat cells) (human) (UniProt Q15109); assay: cell-based or functional assay
[2] = biological target: RAGE on cultured bovine aortic endothelial cells (BAEC RAGE) (bovine) (UniProt Q28173); assay: binding to endothelial cells in culture wells
[3] = biological target: RAGE on macrophages / macrophage-like cultured BV2 cells (MP RAGE) (UniProt Q62151); assay: binding to macrophages in culture wells
[4] = biological target: purified soluble human RAGE (sRAGE), prepared from a baculovirus expression system (human) (UniProt Q15109); assay: binding to immobilised RAGE in wells
[5] = biological target: T1, RAGE on cultured bovine aortic endothelial cells (BAEC RAGE) (bovine, UniProt Q28173 23-416); assay: radioligand binding on cultured bovine aortic endothelial cells
T1 construct: whole, on cells; also called BAECs; endothelial (EC) RAGE
T1 sequence (looked up): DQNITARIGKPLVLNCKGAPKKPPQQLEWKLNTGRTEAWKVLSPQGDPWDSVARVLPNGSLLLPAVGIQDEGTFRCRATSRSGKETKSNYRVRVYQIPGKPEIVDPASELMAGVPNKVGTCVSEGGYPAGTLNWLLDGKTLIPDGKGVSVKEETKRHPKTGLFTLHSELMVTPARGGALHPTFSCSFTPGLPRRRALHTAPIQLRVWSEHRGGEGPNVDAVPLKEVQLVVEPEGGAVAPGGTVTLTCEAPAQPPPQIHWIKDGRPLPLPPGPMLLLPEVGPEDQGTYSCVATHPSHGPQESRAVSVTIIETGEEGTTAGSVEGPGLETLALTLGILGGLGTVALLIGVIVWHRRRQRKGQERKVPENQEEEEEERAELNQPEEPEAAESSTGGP
Protocol: These experiments were performed at least five times with analogous results.
Purified EN-RAGE was radiolabelled using ^125-I and Iodobeads (Pierce) to a specific activity of approximately 5,000 cpm/ng. Radioligand binding assays were performed in 96-well dishes to which had been adsorbed either purified human RAGE (5 µg/well) or bovine aortic endothelial cells. In the former case, after adsorption of human soluble RAGE to the plastic dish in carbonate/bicarbonate buffer (pH 9.3) overnight, wells were then washed with PBS containing Tween 20 (0.05%). Unoccupied binding sites on the plastic wells were blocked by incubation with PBS containing calcium/magnesium and bovine serum albumin (1%) for two hours at 37° C. […] Solution was then aspirated from the wells and counted in a gamma counter (LKB, Gaithersburg, Md.). […] Equilibrium binding data were analyzed according to the equation of Klotz and Hunston (Klotz and Hunston, 1984): B=nKA/1+KA, where B=specifically bound ligand (total binding, wells incubated with tracer alone, minus nonspecific binding, wells incubated with tracer in the presence of excess unlabelled material), n=sites/cell, K=the […] constant, and A=free ligand concentration) using nonlinear least-squares analysis (Prism; San Diego, Calif.). […]

[6] = biological target: T2, purified soluble human RAGE (sRAGE), prepared from a baculovirus expression system (human, UniProt Q15109 23-342); assay: radioligand binding, 125-I EN-RAGE ± 50-fold unlabelled EN-RAGE on immobilised human sRAGE
T2 construct: extracellular domain; Adsorbed to plastic wells at 5 µg/well or to Affi-gel resin; also called soluble RAGE; human soluble RAGE
Protocol: Radioligand binding assays were performed employing the indicated concentration of ^125-I EN-RAGE in the presence or absence of excess unlabelled EN-RAGE (50-fold). […] Where indicated, radiolabelled EN-RAGE (100 nM) was incubated with the indicated amount of excess sRAGE two hours prior to binding assay, or wells were preincubated for two hours with the indicated concentration of rabbit nonimmune IgG, or polyclonal monospecific rabbit anti-EN-RAGE IgG or anti-RAGE IgG prior to binding assay and results reported as % maximal specific binding±SD of the mean. These experiments were performed at least five times with analogous results.
Purified EN-RAGE was radiolabelled using ^125-I and Iodobeads (Pierce) to a specific activity of approximately 5,000 cpm/ng. Radioligand binding assays were performed in 96-well dishes to which had been adsorbed either purified human RAGE (5 µg/well) or bovine aortic endothelial cells. In the former case, after adsorption of human soluble RAGE to the plastic dish in carbonate/bicarbonate buffer (pH 9.3) overnight, wells were then washed with PBS containing Tween 20 (0.05%). Unoccupied binding sites on the plastic wells were blocked by incubation with PBS containing calcium/magnesium and bovine serum albumin (1%) for two hours at 37° C. […] Solution was then aspirated from the wells and counted in a gamma counter (LKB, Gaithersburg, Md.). […]

[7] = biological target: cellular RAGE on human cells (HUVEC, Molt-4 cells, PBMC, Jurkat cells) (human, UniProt Q15109 23-404); assay: cell-based or functional assay
[8] = biological target: T2, purified soluble human RAGE (sRAGE), …; assay: elution from RAGE-Affi-gel resin; radioligand binding assay
Source text: Isolation and purification of EN-RAGE. Bovine lung acetone powder (SIGMA@) was subjected to solubilization in buffer containing tris (0.02M, pH 7.4); NaCl (0.15M); octyl-β-glucoside (1%); and protease inhibitors (PMSF and aprotinin). After serial chromatography onto SP sepharose (Pharmacia LKB®), and affi-gel 10 resin (BIO-RAD®) to which had been adsorbed purified soluble human RAGE (prepared from a baculovirus expression system), RAGE-binding proteins were identified based on a screening assay employing immobilized column fraction (Nunc Maxisorp dishes) (NUNC®) and ^125-I-labelled sRAGE as above. After elution with heparin-containing buffer (1 mg/ml), positive fractions were identified. RAGE-binding proteins were subjected to sequence analysis.

T2 sequence (Q15109 23-342): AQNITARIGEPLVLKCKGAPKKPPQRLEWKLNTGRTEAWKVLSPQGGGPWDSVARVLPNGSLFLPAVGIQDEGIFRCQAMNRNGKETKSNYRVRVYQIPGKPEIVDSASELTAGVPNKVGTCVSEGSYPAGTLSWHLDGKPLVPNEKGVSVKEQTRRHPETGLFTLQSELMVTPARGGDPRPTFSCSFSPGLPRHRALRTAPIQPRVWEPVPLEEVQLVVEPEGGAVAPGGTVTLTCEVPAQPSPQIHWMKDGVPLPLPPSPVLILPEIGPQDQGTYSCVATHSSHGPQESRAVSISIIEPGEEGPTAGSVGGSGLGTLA
cellular RAGE on human cells (HUVEC, Molt-4 cells, PBMC, Jurkat cells), sequence (Q15109 23-404): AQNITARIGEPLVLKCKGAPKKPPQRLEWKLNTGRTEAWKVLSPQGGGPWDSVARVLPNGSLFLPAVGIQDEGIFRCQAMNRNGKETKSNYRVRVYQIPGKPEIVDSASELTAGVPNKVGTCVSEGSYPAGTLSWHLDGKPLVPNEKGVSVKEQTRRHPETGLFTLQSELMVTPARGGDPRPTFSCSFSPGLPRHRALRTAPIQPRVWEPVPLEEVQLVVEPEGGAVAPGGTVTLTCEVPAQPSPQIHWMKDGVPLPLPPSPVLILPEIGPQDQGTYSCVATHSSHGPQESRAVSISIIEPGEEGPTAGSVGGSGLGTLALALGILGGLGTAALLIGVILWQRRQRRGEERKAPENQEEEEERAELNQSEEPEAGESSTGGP
cellular RAGE on human cells (HUVEC, Molt-4 cells, PBMC, Jurkat cells) (human), sequence (Q15109 23-404): as above
purified soluble human RAGE (sRAGE), prepared from a baculovirus expression system (human), sequence (Q15109 23-342): as the sequence (Q15109 23-342) above
RAGE on macrophages / macrophage-like cultured BV2 cells (MP RAGE), sequence (Q62151 23-402 limits assumed): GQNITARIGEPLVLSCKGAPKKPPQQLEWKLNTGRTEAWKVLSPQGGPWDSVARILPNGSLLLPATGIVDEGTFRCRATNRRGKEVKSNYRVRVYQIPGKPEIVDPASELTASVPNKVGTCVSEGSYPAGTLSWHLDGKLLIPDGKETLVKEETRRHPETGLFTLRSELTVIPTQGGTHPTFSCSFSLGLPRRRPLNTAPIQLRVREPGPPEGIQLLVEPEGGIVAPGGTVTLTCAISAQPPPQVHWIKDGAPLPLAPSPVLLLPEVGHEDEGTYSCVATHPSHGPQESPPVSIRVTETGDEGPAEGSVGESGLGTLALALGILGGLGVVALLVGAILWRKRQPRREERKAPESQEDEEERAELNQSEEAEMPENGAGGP

≈12 kDa RAGE-binding polypeptide isolated and purified from bovine lung extract, called EN-RAGE (from UniProt P79105 2-51) (ligand)
adhesion of Molt-4 cells to cultured ECs [1]: 7 fold | expression of cell-surface VCAM-1 on cultured ECs [1]: 4.3 fold | Kd [2]: 75 nM | Kd [3]: 75 nM | Kd [4]: 75 nM

B1: recombinant bovine EN-RAGE (Extracellular Novel RAGE binding protein), expressed in Sf9 cells from a baculovirus system (ligand)
chain: TKLEDHLEGIINIFHQYSVRVGHFDTLNKRELKQLITKELPKTLQNTKDQPTIDKIFQDLDADKDGAVSFEEFVVLVSRVLKTAHIDIHK
modifications: radiolabelled with 125-I (Iodobeads) in the radioligand binding assays; unlabelled in the cell activation assays
notes: also called 125-I EN-RAGE; radiolabelled EN-RAGE
Kd [5]: ~90.3 nM | Kd [6]: ~91 nM | nuclear NF-kB in HUVEC (EMSA, densitometry) [7]: 5 fold

B2: purified S100B from human brain (Calbiochem-Novabiochem) (ligand, UniProt P04271 2-92, looked up)
chain: SELEKAMVALIDVFHQYSGREGDKHKLKKSELKELINNELSHFLEEIKEQEVVDKVMETLDNDGDGECDFQEFMAFVAMVTTACHEFFEHE
nuclear translocation of NF-kB in HUVEC (EMSA) [7]: ~13.9 fold

B3: ≈23 kDa polypeptide from bovine lung extract, identified as amphoterin (ligand, UniProt P10103 2-215, looked up)
chain: GKGDPKKPRGKMSSYAFFVQTCREEHKKKHPDASVNFSEFSKKCSERWKTMSAKEKGKFEDMAKADKARYEREMKTYIPPKGETKKKFKDPNAPKRPPSAFFLFCSEYRPKIKGEHPGLSIGDVAKKLGEMWNNTAADDKQPYEKKAAKLKEKYEKDIAAYRAKGKPDAAKKGVVKAEKSKKKKEEEEDEEDEEDEEEEEDEEDEEEEEDDDDE
notes: The identification is cited to Hori et al., 1995
binding result [8]: binds
